Measurements taken from PMC8163841.

Target: Ino80 carrying a C-terminal 2xFlag-tag (S. cerevisiae) (UniProt P53115)
Sequence of UniProt P53115 (P53115 whole entry): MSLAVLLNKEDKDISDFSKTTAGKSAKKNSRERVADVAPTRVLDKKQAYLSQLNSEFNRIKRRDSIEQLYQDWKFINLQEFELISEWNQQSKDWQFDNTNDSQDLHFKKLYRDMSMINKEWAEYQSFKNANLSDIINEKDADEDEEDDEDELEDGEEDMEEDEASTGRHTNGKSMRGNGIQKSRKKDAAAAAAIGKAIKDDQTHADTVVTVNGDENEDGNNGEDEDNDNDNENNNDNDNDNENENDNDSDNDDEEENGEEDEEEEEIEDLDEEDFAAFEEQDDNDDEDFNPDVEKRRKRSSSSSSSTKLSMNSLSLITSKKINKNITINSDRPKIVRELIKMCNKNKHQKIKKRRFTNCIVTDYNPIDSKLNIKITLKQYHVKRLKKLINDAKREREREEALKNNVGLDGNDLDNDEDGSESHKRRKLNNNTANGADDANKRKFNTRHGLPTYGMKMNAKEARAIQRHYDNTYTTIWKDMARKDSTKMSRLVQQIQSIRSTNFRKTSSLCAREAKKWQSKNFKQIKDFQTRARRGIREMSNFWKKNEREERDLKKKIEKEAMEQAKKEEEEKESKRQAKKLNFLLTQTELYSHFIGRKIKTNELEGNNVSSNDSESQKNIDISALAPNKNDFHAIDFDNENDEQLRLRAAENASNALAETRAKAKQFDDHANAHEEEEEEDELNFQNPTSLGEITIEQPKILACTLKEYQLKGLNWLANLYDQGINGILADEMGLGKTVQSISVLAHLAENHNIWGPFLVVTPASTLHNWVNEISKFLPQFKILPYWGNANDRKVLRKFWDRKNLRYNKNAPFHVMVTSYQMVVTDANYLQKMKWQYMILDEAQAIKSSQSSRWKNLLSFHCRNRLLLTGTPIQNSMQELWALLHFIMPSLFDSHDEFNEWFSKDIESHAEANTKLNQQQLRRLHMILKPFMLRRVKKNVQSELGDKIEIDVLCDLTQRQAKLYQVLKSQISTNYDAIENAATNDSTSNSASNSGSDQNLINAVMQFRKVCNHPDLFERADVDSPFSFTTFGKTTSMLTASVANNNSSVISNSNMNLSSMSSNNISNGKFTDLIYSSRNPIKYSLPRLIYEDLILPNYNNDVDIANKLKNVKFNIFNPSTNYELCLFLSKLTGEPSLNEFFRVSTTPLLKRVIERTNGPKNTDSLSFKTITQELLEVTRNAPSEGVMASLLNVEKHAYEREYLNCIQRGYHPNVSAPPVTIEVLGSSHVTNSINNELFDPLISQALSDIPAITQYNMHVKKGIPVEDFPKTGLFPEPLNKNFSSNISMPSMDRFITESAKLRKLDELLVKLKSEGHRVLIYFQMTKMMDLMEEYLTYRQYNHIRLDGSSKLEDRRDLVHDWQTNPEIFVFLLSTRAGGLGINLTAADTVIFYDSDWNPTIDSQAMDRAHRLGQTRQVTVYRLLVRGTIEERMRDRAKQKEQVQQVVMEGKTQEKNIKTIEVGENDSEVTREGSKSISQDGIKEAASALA

NADH-based ATPase activity of the WT INO80 complex with yGL167c-NCP601 mononucleosomes, with against without Reb1: 2 fold
B1: S. cerevisiae Reb1 with a Streptavidin tag at the C terminus (natural protein)
chain: MPSGHNDKNANQESVEEAVLKYVGVGLDHQNHDPQLHTKDLENKHSKKQNIVESSSDVDVNNNDDSNRNEDNNDDSENISALNANESSSNVDHANSNEQHNAVMDWYLRQTAHNQQDDEDDENNNNTDNGNDSNNHFSQSDIVVDDDDDKNKKDAGVGVDDDHQSMAMAAVAAAYTLSKNNNNNNSIANDSNSRKRQHDNGNNHENSQKKRKNNNDDDDRQIGNVDPELTTLGDADDNDTNNDVIDRDQLVHKAIIDADSITQHPDFQQYLNTAADTDDNEKLKHIKDHLMRTHGLNHQNKNHNDDTDDLSNSTKQYSELQKDSMLDSSLNKSRNYMEVLPKVISQDTQPHQQKSPSHDNEAGSVDNSEISQLLQSAATKASSLVSLSSSSATPSTSRSNNSKAFDKAEDAALERFINEYEAIERLTRQQVCERIWSSDRPKDNFWNNIYKVLPYRSSSSIYKHMRRKYHIFEQRGKWTAEEEQELAKLCAEKEGQWAEIGKTLGRMPEDCRDRWRNYVKCGTNRASNRWSVEEEELLKKVISDMLEEAQQQQSQLHPNLLEEEQHLLQDDQNDHRNNDEDDDDTASAAAAAAAAIQEQQQLLQQKQQDDDDAIAAAAAAASSSLGDNKDEDKPHDSLGIQLDDNSQNSMVPAPSATSTHSKSLSNTIRRHNNKLRKSLMGNGKLDFKDIINWTIVSERMGGTRSRIQCRYKWNKLVKREAIAKIQTVKDDDMLWIFEKLRDLGITEDSQVDWDELAALKPGMKLNGLELKLCYERMKKKVKGYKQKSINEISKELVDYFSSNISMKTEN
